Series [1] addresses human GLT25D1/ColGalT1 (procollagen galactosyltransferase 1), amino acids 30-622, wild type (human) (UniProt Q8NBJ5). The series is described as follows: cryo-EM structure.
The series “cryo-EM structure” deals with the molecule itself. The series is described as follows: cryo-EM structure.

As a reminder, the stoichiometry N is a count of units in the complex or per binding partner.

For the molecule “human GLT25D1/ColGalT1 (procollagen galactosyltransferase 1), amino acids 30-622, wild type (from UniProt Q8NBJ5 30-622) (enzyme)”, the stoichiometry N in series [1] was 2.

B1: human LH3/PLOD3 (multifunctional procollagen lysine hydroxylase and glycosyltransferase LH3), wild type (enzyme)
chain: SDRPRGRDPVNPEKLLVITVATAETEGYLRFLRSAEFFNYTVRTLGLGEEWRGGDVARTVGGGQKVRWLKKEMEKYADREDMIIMFVDSYDVILAGSPTELLKKFVQSGSRLLFSAESFCWPEWGLAEQYPEVGTGKRFLNSGGFIGFATTIHQIVRQWKYKDDDDDQLFYTRLYLDPGLREKLSLNLDHKSRIFQNLNGALDEVVLKFDRNRVRIRNVAYDTLPIVVHGNGPTKLQLNYLGNYVPNGWTPEGGCGFCNQDRRTLPGGQPPPRVFLAVFVEQPTPFLPRFLQRLLLLDYPPDRVTLFLHNNEVFHEPHIADSWPQLQDHFSAVKLVGPEEALSPGEARDMAMDLCRQDPECEFYFSLDADAVLTNLQTLRILIEENRKVIAPMLSRHGKLWSNFWGALSPDEYYARSEDYVELVQRKRVGVWNVPYISQAYVIRGDTLRMELPQRDVFSGSDTDPDMAFCKSFRDKGIFLHLSNQHEFGRLLATSRYDTEHLHPDLWQIFDNPVDWKEQYIHENYSRALEGEGIVEQPCPDVYWFPLLSEQMCDELVAEMEHYGQWSGGRHEDSRLAGGYENVPTVDIHMKQVGYEDQWLQLLRTYVGPMTESLFPGYHTKARAVMNFVVRYRPDEQPSLRPHHDSSTFTLNVALNHKGLDYEGGGCRFLRYDCVISSPRKGWALLHPGRLTHYHEGLPTTWGTRYIMVSFVDP
modifications: N-linked glycans at N63 and N548 (seen in the cryo-EM map)
Regarding B1, the “stoichiometry N” value in “cryo-EM structure” was 2.

For the origin of these results see article PMC11897130 (Nature Communications, 2025).
